According to patent US20210292396A1:

What was measured:
Test in all cases: cell-based or functional assay
[1] = molecular target: HIV Env of isolate CH119.10 (HIV)
[2] = molecular target: HIV Env of isolate ZM53.12 (HIV)
[3] = molecular target: Env of HIV isolate Q461.e2 (clade AD) (HIV)
[4] = molecular target: Env of HIV isolate MN.3 (clade B) (HIV)
[5] = molecular target: Env of HIV isolate X2088.c9 (clade G) (HIV)
[6] = molecular target: Env of HIV isolate Ce1176.A3 (clade C) (HIV)
[7] = molecular target: HIV Env of isolate X1254.c3 (HIV)
[8] = molecular target: Env of HIV isolate 25710-2.43 (clade C) (HIV)
[9] = molecular target: Env of HIV isolate CNE12 (clade B) (HIV)
[10] = molecular target: Env of SIVmac251.30.SG3
[11] = molecular target: Env of HIV isolate CNE40 (clade BC) (HIV)
[12] = molecular target: Env of HIV isolate 288.38 (clade C) (HIV)
[13] = molecular target: Env of HIV isolate 3637.v5.c3 (clade C) (HIV)
[14] = molecular target: Env of HIV isolate TZBD.02 (clade C) (HIV)
[15] = molecular target: Env of HIV isolate CNE31 (clade C) (HIV)
[16] = molecular target: Env of HIV isolate DU151.02 (clade C) (HIV)
[17] = molecular target: HIV Env of isolate 3016.v5.c45 (HIV)
[18] = molecular target: HIV Env of isolate 16845-2.22 (HIV)
[19] = molecular target: Env of HIV isolate SF162.LS (clade B) (HIV)
[20] = molecular target: Env of HIV isolate CH070.1 (clade BC) (HIV)
[21] = molecular target: HIV Env of isolate TV1.29 (HIV)
[22] = molecular target: Env of HIV isolate T251-18 (clade AG) (HIV)
[23] = molecular target: Env of HIV isolate DU123.06 (clade C) (HIV)
[24] = molecular target: Env of HIV isolate 25925-2.22 (clade C) (HIV)
[25] = molecular target: HIV Env of isolate CNE7 (HIV)
[26] = molecular target: Env of HIV isolate CNE55 (clade AE) (HIV)
[27] = molecular target: Env of HIV isolate 0921.v2.c14 (clade C) (HIV)
[28] = molecular target: Env of HIV isolate 3326.v4.c3 (clade CD) (HIV)
[29] = molecular target: Env of HIV isolate RHPA.7 (clade B) (HIV)
[30] = molecular target: HIV Env of isolate DU422.01 (HIV)
[31] = molecular target: HIV Env of isolate 6785.v5.c14 (HIV)
[32] = molecular target: Env of HIV isolate NKU3006.ec1 (clade D) (HIV)
[33] = molecular target: Env of HIV isolate HT593.1 (clade B) (HIV)
[34] = molecular target: Env of HIV isolate 6631.v3.c10 (clade C) (HIV)
[35] = molecular target: Env of HIV isolate BB539.2B13 (clade A) (HIV)
[36] = molecular target: HIV Env of isolate CNE15 (HIV)
[37] = molecular target: HIV Env of isolate 3817.v2.c59 (HIV)
[38] = molecular target: Env of HIV isolate ZM215.8 (clade C) (HIV)
[39] = molecular target: HIV Env of isolate CAP45.G3 (HIV)
[40] = molecular target: Env of HIV isolate 6101.10 (clade B) (HIV)
[41] = molecular target: Env of HIV isolate TRJO.58 (clade B) (HIV)
[42] = molecular target: Env of HIV isolate KER2018.11 (clade A) (HIV)
[43] = molecular target: Env of HIV isolate 3337.v2.c6 (clade CD) (HIV)
[44] = molecular target: Env of HIV isolate CNE15 (clade BC) (HIV)
[45] = molecular target: Env of HIV isolate ZM176.66 (clade C) (HIV)
[46] = molecular target: Env of HIV isolate UG021.16 (clade D) (HIV)
[47] = molecular target: Env of HIV isolate CNE14 (clade B) (HIV)
[48] = molecular target: Env of HIV isolate MS208.A1 (clade A) (HIV)
[49] = molecular target: Env of HIV isolate Q769.d22 (clade A) (HIV)
[50] = molecular target: Env of HIV isolate MB201.A1 (clade A) (HIV)

B1: ePGT121.18 (ePGT121.18.H1 VH and ePGT121.17.L1 VL) (antibody, V domains shown)
VH: QMQLQESGPGLVKPGETLSLTCSVSGASISSSYWSWLRETPGKGLEWIGYTHHSGDTNYAPSLKSRVHLGLHPSKNQVSLSLTSVTAADTAVYYCARTLHGRRIYGVVAFNEYYTYFYWPTWGKGTQVTVSS
VL: SDISVAPGETVRITCGGESIGSRAVQWYQHRPGQAPRLIIYNNQDRPPGIPERFSGSPDIDFGTTATLTISNVEAGDEATYYCHIWDSRRPTNWELGPGTTLTVL
With B1 the IC80, pseudovirus neutralization (M1) [1] was 0.01 µg/mL, the IC80, pseudovirus neutralization (M2) [1] was 0.014 µg/mL and the IC80, pseudovirus neutralization (M1) [2] was 0.02 µg/mL. For the same binder, the IC80, pseudovirus neutralization (M2) [2] was 0.032 µg/mL, the IC50, pseudovirus neutralization [3] was > 50 µg/mL and the IC50, pseudovirus neutralization [4] was 0.002 µg/mL. For the same binder, the IC50, pseudovirus neutralization [5] was 0.002 µg/mL, the IC50, pseudovirus neutralization [6] was 0.003 µg/mL and the IC80, pseudovirus neutralization (M1) [7] was 0.005 µg/mL. The IC80, pseudovirus neutralization (M2) [7] was 0.006 µg/mL, the IC50, pseudovirus neutralization [8] was 0.004 µg/mL and the IC50, pseudovirus neutralization [9] was 0.002 µg/mL. The IC80, pseudovirus neutralization (M1) [10] was > 50 µg/mL, the IC80, pseudovirus neutralization (M2) [10] was > 50 µg/mL and the IC50, pseudovirus neutralization [11] was 0.015 µg/mL. For the same binder, the IC50, pseudovirus neutralization [12] was 0.0008 µg/mL, the IC50, pseudovirus neutralization [13] was > 50 µg/mL and the IC50, pseudovirus neutralization [14] was 0.002 µg/mL. For the same binder, the IC50, pseudovirus neutralization [15] was 0.015 µg/mL, the IC50, pseudovirus neutralization [16] was 0.001 µg/mL and the IC80, pseudovirus neutralization (M1) [17] was > 50 µg/mL. The IC80, pseudovirus neutralization (M2) [17] was > 50 µg/mL, the IC80, pseudovirus neutralization (M1) [18] was 0.127 µg/mL and the IC80, pseudovirus neutralization (M2) [18] was 0.105 µg/mL. It also gave an IC50, pseudovirus neutralization [19] of 0.002 µg/mL, an IC50, pseudovirus neutralization [20] of 0.0008 µg/mL and an IC80, pseudovirus neutralization (M1) [21] of 0.005 µg/mL. The IC80, pseudovirus neutralization (M2) [21] was 0.008 µg/mL, the IC50, pseudovirus neutralization [22] was 0.019 µg/mL and the IC50, pseudovirus neutralization [23] was 0.002 µg/mL. For the same binder, the IC50, pseudovirus neutralization [24] was 0.003 µg/mL, the IC80, pseudovirus neutralization (M1) [25] was 0.008 µg/mL and the IC80, pseudovirus neutralization (M2) [25] was 0.007 µg/mL. The IC50, pseudovirus neutralization [26] was > 50 µg/mL, the IC50, pseudovirus neutralization [27] was 0.091 µg/mL and the IC50, pseudovirus neutralization [28] was 0.306 µg/mL. It also gave an IC50, pseudovirus neutralization [29] of 0.002 µg/mL, an IC80, pseudovirus neutralization (M1) [30] of 0.013 µg/mL and an IC80, pseudovirus neutralization (M2) [30] of 0.013 µg/mL. For the same binder, the IC80, pseudovirus neutralization (M1) [31] was 0.006 µg/mL, the IC80, pseudovirus neutralization (M2) [31] was 0.006 µg/mL and the IC50, pseudovirus neutralization [32] was > 50 µg/mL. For the same binder, the IC50, pseudovirus neutralization [33] was 0.003 µg/mL, the IC50, pseudovirus neutralization [34] was 0.01 µg/mL and the IC50, pseudovirus neutralization [35] was > 50 µg/mL. The IC80, pseudovirus neutralization (M1) [36] was 36.4 µg/mL, the IC80, pseudovirus neutralization (M2) [36] was > 50 µg/mL and the IC80, pseudovirus neutralization (M1) [37] was 2.58 µg/mL. The IC80, pseudovirus neutralization (M2) [37] was 6.79 µg/mL, the IC50, pseudovirus neutralization [38] was 0.006 µg/mL and the IC80, pseudovirus neutralization (M1) [39] was 20.6 µg/mL. It also gave an IC80, pseudovirus neutralization (M2) [39] of 47.5 µg/mL, an IC50, pseudovirus neutralization [40] of 0.001 µg/mL and an IC50, pseudovirus neutralization [41] of 0.003 µg/mL. For the same binder, the IC50, pseudovirus neutralization [42] was > 50 µg/mL, the IC50, pseudovirus neutralization [43] was 0.232 µg/mL and the IC50, pseudovirus neutralization [44] was 5.69 µg/mL. The IC50, pseudovirus neutralization [45] was 0.017 µg/mL, the IC50, pseudovirus neutralization [46] was 0.006 µg/mL and the IC50, pseudovirus neutralization [47] was 0.001 µg/mL. For the same binder, the IC50, pseudovirus neutralization [48] was > 50 µg/mL, the IC50, pseudovirus neutralization [49] was > 50 µg/mL and the IC50, pseudovirus neutralization [50] was 0.001 µg/mL.

B2: ePGT121.18.17 (ePGT121.18.H17 VH and ePGT121.17.L1 VL) (antibody, V domains shown)
VH: QMQLQESGPGLVKPGETLSLTCSVSGASISSSYWSWLRETPGKGLEWIGYTHHSGDTNYAPSLKSRVTIGLDPSKNQVSLSLTSVTAADTAVYYCARTLHGRRIYGVVAFNEYYTYFYWPTWGKGTQVTVSS
VL: SDISVAPGETVRITCGGESIGSRAVQWYQHRPGQAPRLIIYNNQDRPPGIPERFSGSPDIDFGTTATLTISNVEAGDEATYYCHIWDSRRPTNWELGPGTTLTVL
In the case of B2, the IC80, pseudovirus neutralization [1] is reported as 0.028 µg/mL, the IC80, pseudovirus neutralization [2] is reported as 0.079 µg/mL and the IC50, pseudovirus neutralization [3] is reported as > 50 µg/mL. It also gave an IC50, pseudovirus neutralization [4] of 0.004 µg/mL, an IC50, pseudovirus neutralization [5] of 0.006 µg/mL and an IC50, pseudovirus neutralization [6] of 0.008 µg/mL. For the same binder, the IC80, pseudovirus neutralization [7] was 0.015 µg/mL, the IC50, pseudovirus neutralization [8] was 0.008 µg/mL and the IC50, pseudovirus neutralization [9] was 0.004 µg/mL. The IC80, pseudovirus neutralization [10] was > 50 µg/mL, the IC50, pseudovirus neutralization [11] was 0.036 µg/mL and the IC50, pseudovirus neutralization [12] was 0.002 µg/mL. For the same binder, the IC50, pseudovirus neutralization [13] was > 50 µg/mL, the IC50, pseudovirus neutralization [14] was 0.003 µg/mL and the IC50, pseudovirus neutralization [15] was 0.089 µg/mL. The IC50, pseudovirus neutralization [16] was 0.003 µg/mL, the IC80, pseudovirus neutralization [17] was > 50 µg/mL and the IC80, pseudovirus neutralization [18] was 0.629 µg/mL. For the same binder, the IC50, pseudovirus neutralization [19] was 0.003 µg/mL, the IC50, pseudovirus neutralization [20] was 0.003 µg/mL and the IC80, pseudovirus neutralization [21] was 0.031 µg/mL. The IC50, pseudovirus neutralization [22] was 0.041 µg/mL, the IC50, pseudovirus neutralization [23] was 0.004 µg/mL and the IC50, pseudovirus neutralization [24] was 0.011 µg/mL. For the same binder, the IC80, pseudovirus neutralization [25] was 0.017 µg/mL, the IC50, pseudovirus neutralization [26] was > 50 µg/mL and the IC50, pseudovirus neutralization [27] was 0.189 µg/mL. For the same binder, the IC50, pseudovirus neutralization [28] was 0.633 µg/mL, the IC50, pseudovirus neutralization [29] was 0.004 µg/mL and the IC80, pseudovirus neutralization [30] was 0.036 µg/mL. For the same binder, the IC80, pseudovirus neutralization [31] was 0.015 µg/mL, the IC50, pseudovirus neutralization [32] was > 50 µg/mL and the IC50, pseudovirus neutralization [33] was 0.014 µg/mL. For the same binder, the IC50, pseudovirus neutralization [34] was 0.063 µg/mL, the IC50, pseudovirus neutralization [35] was > 50 µg/mL and the IC80, pseudovirus neutralization [36] was > 50 µg/mL. The IC80, pseudovirus neutralization [37] was 17.9 µg/mL, the IC50, pseudovirus neutralization [38] was 0.016 µg/mL and the IC80, pseudovirus neutralization [39] was > 50 µg/mL. The IC50, pseudovirus neutralization [40] was 0.004 µg/mL, the IC50, pseudovirus neutralization [41] was 0.023 µg/mL and the IC50, pseudovirus neutralization [42] was > 50 µg/mL. For the same binder, the IC50, pseudovirus neutralization [43] was 0.363 µg/mL, the IC50, pseudovirus neutralization [44] was 14 µg/mL and the IC50, pseudovirus neutralization [45] was 0.122 µg/mL. The IC50, pseudovirus neutralization [46] was 0.013 µg/mL, the IC50, pseudovirus neutralization [47] was 0.003 µg/mL and the IC50, pseudovirus neutralization [48] was > 50 µg/mL. The IC50, pseudovirus neutralization [49] was > 50 µg/mL and the IC50, pseudovirus neutralization [50] was 0.004 µg/mL.

B3: ePGT121.15.H2.L1 (antibody, V domains shown)
VH: QMQLQESGPGLVKPGETLSLTCSVSGASISSSYWSWLRETPGKGLEWIGYTHHSGDTNYAPSLKSRVHLGLHPSKNQVSLSLTSVTAADTAVYYCARTLHGRRIYGVVAFNEWFTYFYWEVWGKGTQVTVSS
VL: SDISVAPGETVRISCGGESIGSRAVQWYQHRAGQAPKLIIYNNQDRPPGIPERFSGSPDIDFGTTATLTITNVEAGDEATYYCHIWDSRRPTNWVFGGGTTLTVL
Binder B3 has a neutralization (Table 6 value) [37] of 0.00328.
